For one experiment, the target named is T1, Human plasma fibronectin (human, UniProt P02751 32-2477, Alexa^488 label where used as FN^488).
T1 construct: Used coated on plastic at 10 nM, or soluble at 10 µg/ml, unlabeled or Alexa488-labeled; also called full-length fibronectin; FN
The experiment is described as follows: Alexa488-fibronectin added to cell-free wells coated with 400 nM mimetic; fluorescence after 20 h.

Experiment [1] addresses T2, FITC-labeled type I collagen (rat, UniProt P02454 152-1207; P02466 86-1125, FITC label).
T2 construct: also called FITC-collagen I; collagen I
The experiment is described as follows: FITC-collagen I added to cell-free, fibronectin-free wells coated with 400 nM mimetic; fluorescence after 20 h. Here is the method: FIGS. 14A-14C show collagen I deposition by cells adherent to matrix mimetics. FN-null MEFs were seeded (3.0×10⁴ cells/cm²) on tissue culture plates pre-coated with matrix mimetics (400 nM). Four hours after seeding, cells were treated with fibronectin (10 μg/ml) and FITC-collagen I (10 μg/ml) for 20 h. In FIG. 14A, control wells received either FITC-collagen I only (+cell, −FN) or FITC collagen I in the absence of both cells and fibronectin (−cells, −FN). […] In FIG. 14B, cells were processed for immunofluorescence microscopy and stained using an antibody against fibronectin. Images represent 1 of 3 experiments. Bar=10 μm. Four hours after seeding, cells were treated with fibronectin (10 μg/ml) and FITC-collagen I ([…]) in the presence of either R1R2 (250 nM) or FNIII11C (250 nM).
The deposition of collagen I into the ECM is dependent on the co-assembly of a fibronectin matrix (Sottile et al., “Fibronectin Polymerization Regulates the Composition and Stability of Extracellular Matrix Fibrils and Cell-Matrix Adhesions,” Mol. Biol. Cell. 13(10):3546-3559 (2002), which is hereby incorporated by reference in its entirety). […] FITC-collagen I deposition was quantified 20 h after fibronectin and collagen addition.

The target of experiment [2] is T3, α5β1 integrin on mouse embryonic fibronectin-null fibroblasts (mouse, UniProt P11688 45-1053; P09055 21-798).
T3 construct: whole, on cells; Endogenous integrin on FN-null MEFs; also called α5β1 integrins; a5β1 integrin
Nature of the experiment: immunofluorescence of α5 integrin clustering in FN-null MEFs adherent for 4 h to coated substrate. As to the method: FIGS. 16A-16C show substrate-dependent ligation and clustering of α5β1 integrins. FN-null MEFs were seeded at a density of 2.5×10³ cells/cm² (FIG. 16A) or 3×10⁴ cells/cm² (FIG. 16B) onto tissue culture plates precoated with 400 nM of the various fibronectin matrix mimetics or 10 nM full-length fibronectin and allowed to adhere and spread for 4 h. In FIG. 16A, cells were processed for immunofluorescence microscopy and stained using antibodies against α5 integrin and vinculin. Images represent 1 of 3 experiments. Bar=10 μm. In FIG. 16B, cell surface proteins bound to the adhesive substrates were cross-linked using bis(sulfosuccinimidyl)suberate (BS³). Unbound proteins were extracted and […]. α5 integrins were analyzed by immunoblotting.
The preceding Examples therefore indicate that upon adhesion to GST/III1H,8-10, α5β1 integrins preferentially engage the adhesive substrate instead of soluble fibronectin, thus inhibiting the initiation of the matrix assembly process. To assess α5β1 integrin clustering in response to substrate adhesion, FN-null MEFs were allowed to adhere and spread for 4 h on plates pre-coated with saturating densities of matrix mimetics in the absence of soluble fibronectin. α5β1 integrins were visualized by immunofluorescence microscopy. […]

T1 sequence (P02751 other isoform, or with tags, fused parts or gaps): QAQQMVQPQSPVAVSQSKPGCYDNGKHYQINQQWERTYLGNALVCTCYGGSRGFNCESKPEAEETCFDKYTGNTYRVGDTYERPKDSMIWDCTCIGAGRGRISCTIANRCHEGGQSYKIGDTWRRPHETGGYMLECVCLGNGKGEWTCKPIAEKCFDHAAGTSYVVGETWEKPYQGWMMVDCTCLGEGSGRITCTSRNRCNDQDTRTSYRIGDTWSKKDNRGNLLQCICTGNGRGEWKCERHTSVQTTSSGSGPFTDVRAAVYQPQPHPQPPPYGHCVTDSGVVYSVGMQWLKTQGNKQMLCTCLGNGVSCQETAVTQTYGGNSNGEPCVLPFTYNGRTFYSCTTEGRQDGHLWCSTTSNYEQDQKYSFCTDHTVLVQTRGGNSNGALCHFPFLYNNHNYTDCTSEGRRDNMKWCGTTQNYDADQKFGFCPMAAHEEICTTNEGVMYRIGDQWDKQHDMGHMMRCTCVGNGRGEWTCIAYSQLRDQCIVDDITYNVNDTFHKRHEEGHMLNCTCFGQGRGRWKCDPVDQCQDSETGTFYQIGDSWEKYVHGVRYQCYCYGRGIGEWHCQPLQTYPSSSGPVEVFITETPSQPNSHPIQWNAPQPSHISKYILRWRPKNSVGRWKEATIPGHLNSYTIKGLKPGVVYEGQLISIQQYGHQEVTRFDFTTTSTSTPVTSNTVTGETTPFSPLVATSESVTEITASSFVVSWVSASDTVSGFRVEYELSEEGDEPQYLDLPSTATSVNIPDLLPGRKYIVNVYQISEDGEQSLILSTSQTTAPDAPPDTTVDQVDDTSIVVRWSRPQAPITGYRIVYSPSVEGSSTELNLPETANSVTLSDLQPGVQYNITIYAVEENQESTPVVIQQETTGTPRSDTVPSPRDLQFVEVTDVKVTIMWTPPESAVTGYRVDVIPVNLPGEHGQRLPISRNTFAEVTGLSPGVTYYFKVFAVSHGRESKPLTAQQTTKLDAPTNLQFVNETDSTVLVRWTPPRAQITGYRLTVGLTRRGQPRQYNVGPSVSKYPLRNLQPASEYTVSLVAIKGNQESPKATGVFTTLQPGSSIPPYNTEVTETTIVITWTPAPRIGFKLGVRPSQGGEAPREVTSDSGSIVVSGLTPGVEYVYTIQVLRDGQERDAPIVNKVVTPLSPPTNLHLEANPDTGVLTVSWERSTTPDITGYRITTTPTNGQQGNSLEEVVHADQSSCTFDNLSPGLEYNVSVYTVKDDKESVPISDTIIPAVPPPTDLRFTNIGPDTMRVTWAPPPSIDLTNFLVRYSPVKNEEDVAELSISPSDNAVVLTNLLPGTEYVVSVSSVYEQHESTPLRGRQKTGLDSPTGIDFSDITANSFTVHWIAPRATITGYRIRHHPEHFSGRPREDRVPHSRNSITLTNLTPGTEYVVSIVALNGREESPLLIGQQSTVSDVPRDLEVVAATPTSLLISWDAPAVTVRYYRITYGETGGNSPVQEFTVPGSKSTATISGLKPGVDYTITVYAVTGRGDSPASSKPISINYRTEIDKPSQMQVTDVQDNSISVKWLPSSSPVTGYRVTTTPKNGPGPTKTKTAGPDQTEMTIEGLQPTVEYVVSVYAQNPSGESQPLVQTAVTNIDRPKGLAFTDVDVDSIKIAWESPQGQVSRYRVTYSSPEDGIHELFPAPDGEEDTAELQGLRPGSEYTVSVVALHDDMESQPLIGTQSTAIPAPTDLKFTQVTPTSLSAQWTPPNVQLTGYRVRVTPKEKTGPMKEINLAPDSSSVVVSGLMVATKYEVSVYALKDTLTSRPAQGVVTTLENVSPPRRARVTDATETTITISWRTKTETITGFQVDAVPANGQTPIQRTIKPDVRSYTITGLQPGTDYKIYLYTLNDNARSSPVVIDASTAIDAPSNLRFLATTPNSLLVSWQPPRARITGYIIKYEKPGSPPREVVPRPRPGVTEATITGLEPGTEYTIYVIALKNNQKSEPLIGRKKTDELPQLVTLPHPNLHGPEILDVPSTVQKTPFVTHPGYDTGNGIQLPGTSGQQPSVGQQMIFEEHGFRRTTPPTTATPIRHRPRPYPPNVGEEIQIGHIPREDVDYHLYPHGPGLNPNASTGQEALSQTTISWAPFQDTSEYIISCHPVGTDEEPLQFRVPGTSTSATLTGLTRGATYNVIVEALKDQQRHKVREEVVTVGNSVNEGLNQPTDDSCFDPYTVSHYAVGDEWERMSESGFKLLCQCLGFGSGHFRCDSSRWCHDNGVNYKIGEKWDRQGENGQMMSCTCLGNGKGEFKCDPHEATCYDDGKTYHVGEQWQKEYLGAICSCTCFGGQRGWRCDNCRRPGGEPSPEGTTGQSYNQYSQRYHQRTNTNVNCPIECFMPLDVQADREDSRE
T2 sequence (P02454 152-1207, chain 1 of 2): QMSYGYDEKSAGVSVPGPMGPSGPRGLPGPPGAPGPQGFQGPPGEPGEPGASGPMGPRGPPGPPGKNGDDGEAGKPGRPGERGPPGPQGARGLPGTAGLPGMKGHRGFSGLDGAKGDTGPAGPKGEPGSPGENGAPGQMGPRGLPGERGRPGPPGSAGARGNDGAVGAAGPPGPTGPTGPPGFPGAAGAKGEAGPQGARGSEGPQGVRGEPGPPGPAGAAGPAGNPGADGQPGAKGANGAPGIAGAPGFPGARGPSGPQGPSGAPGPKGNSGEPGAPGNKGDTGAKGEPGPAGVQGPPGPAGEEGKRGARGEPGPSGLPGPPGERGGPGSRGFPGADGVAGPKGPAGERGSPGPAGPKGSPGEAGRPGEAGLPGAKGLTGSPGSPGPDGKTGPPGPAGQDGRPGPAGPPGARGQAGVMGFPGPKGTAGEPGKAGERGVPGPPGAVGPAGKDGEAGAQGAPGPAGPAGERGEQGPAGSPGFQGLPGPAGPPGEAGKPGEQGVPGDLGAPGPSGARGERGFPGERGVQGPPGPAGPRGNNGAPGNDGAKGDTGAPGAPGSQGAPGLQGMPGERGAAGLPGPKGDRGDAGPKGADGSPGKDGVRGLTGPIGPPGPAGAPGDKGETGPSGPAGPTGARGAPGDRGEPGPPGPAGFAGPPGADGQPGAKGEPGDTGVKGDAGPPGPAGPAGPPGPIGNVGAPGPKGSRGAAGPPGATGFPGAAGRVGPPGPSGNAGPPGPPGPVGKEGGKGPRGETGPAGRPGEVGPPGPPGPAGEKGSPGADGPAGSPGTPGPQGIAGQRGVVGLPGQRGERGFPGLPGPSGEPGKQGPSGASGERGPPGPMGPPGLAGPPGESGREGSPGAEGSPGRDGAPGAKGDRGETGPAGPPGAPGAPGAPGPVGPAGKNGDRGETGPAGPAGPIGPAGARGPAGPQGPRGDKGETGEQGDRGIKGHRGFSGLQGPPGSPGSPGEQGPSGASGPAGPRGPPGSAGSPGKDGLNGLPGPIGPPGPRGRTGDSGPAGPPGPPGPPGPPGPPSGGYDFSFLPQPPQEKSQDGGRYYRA
T2 sequence (P02466 86-1125, chain 2 of 2): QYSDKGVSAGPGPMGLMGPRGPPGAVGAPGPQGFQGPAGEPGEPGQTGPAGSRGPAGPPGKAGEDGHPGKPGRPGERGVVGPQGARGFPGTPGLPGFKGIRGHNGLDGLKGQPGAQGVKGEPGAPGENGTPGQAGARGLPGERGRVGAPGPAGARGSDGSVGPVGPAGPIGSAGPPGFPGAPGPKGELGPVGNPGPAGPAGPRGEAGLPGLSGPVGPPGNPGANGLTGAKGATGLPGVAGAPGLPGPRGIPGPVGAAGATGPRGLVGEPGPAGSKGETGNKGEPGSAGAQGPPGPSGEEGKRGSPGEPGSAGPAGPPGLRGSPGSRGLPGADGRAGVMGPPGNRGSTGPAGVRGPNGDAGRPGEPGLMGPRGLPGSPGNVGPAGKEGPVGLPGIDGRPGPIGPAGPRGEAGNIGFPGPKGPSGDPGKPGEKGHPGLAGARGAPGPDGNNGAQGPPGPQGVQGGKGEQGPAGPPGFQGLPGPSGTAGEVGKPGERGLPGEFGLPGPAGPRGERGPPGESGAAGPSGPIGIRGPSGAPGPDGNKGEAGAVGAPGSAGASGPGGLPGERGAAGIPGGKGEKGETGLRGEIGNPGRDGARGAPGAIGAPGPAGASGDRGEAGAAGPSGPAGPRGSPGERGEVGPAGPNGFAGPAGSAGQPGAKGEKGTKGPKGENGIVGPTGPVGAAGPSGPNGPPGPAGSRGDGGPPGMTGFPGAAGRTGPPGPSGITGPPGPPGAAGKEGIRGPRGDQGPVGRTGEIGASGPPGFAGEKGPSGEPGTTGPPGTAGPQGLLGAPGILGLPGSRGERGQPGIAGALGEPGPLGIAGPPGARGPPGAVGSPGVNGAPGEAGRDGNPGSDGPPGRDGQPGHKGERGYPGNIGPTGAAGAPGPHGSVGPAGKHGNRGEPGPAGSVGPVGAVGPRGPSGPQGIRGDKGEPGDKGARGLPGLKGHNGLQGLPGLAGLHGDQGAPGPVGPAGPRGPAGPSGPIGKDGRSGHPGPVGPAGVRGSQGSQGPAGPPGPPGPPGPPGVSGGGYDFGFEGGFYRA

B1: GST/III1H,8^RGD (other)
chain: IQWNAPQPSHISKYILRWRPKNSVGRWKEATIPGHLNSYTIKGLKPGVVYEGQLISIQQYGHQEVTRFDFTTTSTSTAVPPPTDLRFTNIGPDTMRVTWAPPPSIDLTNFLVRYSPVKNEEDVAELSISPSDNAVVLTNLLPGTEYVVSVSSVYGRGDSPASSTPLRGRQKT
notes: Coated on tissue culture plastic in the assays; also called FNIII1H,8^RGD; not shown: glutathione S-transferase (GST) tag encoded by vector pGEX-2T (Amersham Biosciences)
As to B1, the binding result in the experiment with Human plasma fibronectin is given as “no binding (tested: 10 µg/ml)”; in experiment [1], “no binding (tested: 10 µg/ml)”; in experiment [2], “no binding (tested: 400 nM coating)”.

B2: GST/III1H,8,10 (other)
chain: IQWNAPQPSHISKYILRWRPKNSVGRWKEATIPGHLNSYTIKGLKPGVVYEGQLISIQQYGHQEVTRFDFTTTSTSTAVPPPTDLRFTNIGPDTMRVTWAPPPSIDLTNFLVRYSPVKNEEDVAELSISPSDNAVVLTNLLPGTEYVVSVSSVYEQHESTPLRGRQKTVSDVPRDLEVVAATPTSLLISWDAPAVTVRYYRITYGETGGNSPVQEFTVPGSKSTATISGLKPGVDYTITVYAVTGRGDSPASSKPISI
notes: Coated on tissue culture plastic in the assays; also called FNIII1H,8,10; not shown: glutathione S-transferase (GST) tag encoded by vector pGEX-2T (Amersham Biosciences)
As to B2, the binding result (with Human plasma fibronectin; in experiment [1]) was “no binding (tested: 10 µg/ml)” in each case.

The record behind these values is patent US20150283214A1 (UNIVERSITY OF ROCHESTER, published 2015).
